# Laboratory results: the nanobody polyreactivity screen of Harvey et al. (2022)
# Experiment: yeast display, Sf9 membrane polyspecificity reagent, FACS + sequencing; frameworks hold sequencing errors
# Outline: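 Galactose-induced (36–48 hours) yeast carrying a synthetic nanobody display library were exposed to 10% biotinylated, detergent-solubilized Sf9 membrane reagent at 4 °C for 1 hour. FACS followed streptavidin microbead enrichment, using low and high (top ~1%) gates for expression (anti-HA) and reagent binding (streptavidin). Colony PCR, MiSeq 2 × 250 sequencing and CDR-length filtering followed. Labels for polyreactivity reflect the gate of origin.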
row,Sequence,polyreactivity (PSR sort gate)
1,QVQLVESGGGLVQAGGSLRLSCAASGRTFRYNAMGWYRQAPGKERELVARITVIGDSTYYADSVKGRFTISRDNAKNTVYLQMNSLKPEDTAVYYCAAVSRRVSPYLSARDYWGQGTQVTVSS,high polyreactivity
2,QVQLVESGGGLVQAGGSLRLSCAASGRTFRYNAMGWYRQAPGKERELVASITYRGGSTYYADSVKGRFTISRDNAKNTVYLQMNSLKPEDTGVYYCATSVYSRPRKPRYYYWGQGTQVTVSS,high polyreactivity
3,QVQLVESGGGLVQAGGSLRLSCAASGRTFRYNDMGWYRQAPGKERELVAAITYTADRTYYADSVKGRFTISRDNAKNTVYLQMNSLKPEDTAVYYCNAAYGRRVTFRPYYWGQGTQVTVSS,high polyreactivity
4,QVQLVESGGGLVQAGGSLRLSCAASGRTFRYNTMGWYRQAPGKERELVASISWGGGSTYYADSVKGRFTISRDNAKNTVYLQMNSLKPEDTAVYYCAARRWGQFRFEYWGQGTQVTVSS,high polyreactivity
5,QVQLVESGGGLVQAGGSLRLSCAASGRTFRYNTMGWYRQAPRKERELFAAISRGGRTYYADSVKGRFTISRDNAKNTVYLQMNSLKPEVTAVDYCAAPAAGDEYDYWGQGTQVTVSS,high polyreactivity
6,QVQLVESGGGLVQAGGSLRLSCAASGRTFRYYAKGWYRQAPGKERELVAAITVTVTSTFYADSVKGRFTISRDNAKNTVYLQMNSLKPEDTAVYYCAKVDRQSPGQYYYWGQGTQVTVSS,low polyreactivity
7,QVQLVESGGGLVQAGGSLRLSCAASGRTFRYYAMGWYRPATGKERELVADISSTGRTYYADSVKGRFTISRDNAKNTVYLQMNSLKPEDTAVYYCNADYFFEFDYWGQGTQVTVSS,low polyreactivity
8,QVQLVESGGGLVQAGGSLRLSCAASGRTFRYYAMGWYRQAPGKERELVAAIDTSSGSTYYADSVKGRFTISRDNAKNTVYLQMNSLKPEDTAVYYCNATWWIPLIYDYWGQGTQVNVSS,low polyreactivity
9,QVQLVESGGGLVQAGGSLRLSCAASGRTFRYYAMGWYRQAPGKERELVAAINRGGSTYYADSVKGRFTISRDNAKNTVYLQMNSLKPEDTAVYYCNFDKYRIVGFHSPYDYWGQGSQVTVSS,high polyreactivity
10,QVQLVESGGGLVQAGGSLRLSCAASGRTFRYYAMGWYRQAPGKERELVAAISRRGGSTFYADSVKGRFTISRDNAKNTVYLQMNSLKPEDTAVYYCAAADRYASDTGGYWGQGTQVTVSS,high polyreactivity
11,QVQLVESGGGLVQAGGSLRLSCAASGRTFRYYAMGWYRQAPGKERELVAAISWSGVRTYYADSVKGRFTISRDNSKNTVYLQMNSLKPEDTAVYYCAKGGYWGQGTQVTVSS,high polyreactivity
12,QVQLVESGGGLVQAGGSLRLSCAASGRTFRYYAMGWYRQAPGKERELVAAITSGGSTYYADSVKGRFTISRDNAKNTVYLQMNSLKPEDTAVYYCNAFFATGVDYWGQGTQVTVSS,high polyreactivity
13,QVQLVESGGGLVQAGGSLRLSCAASGRTFRYYAMGWYRQAPGKERELVADISWSGGRTSYADSVKGRFTISRDNAKNTVYLQMNSLKPEDTAVYYCAKVLYYPSHVYWGQGTQVTVSS,high polyreactivity
14,QVQLVESGGGLVQAGGSLRLSCAASGRTFRYYAMGWYRQAPGKERELVASISSSGSTNYADSVKGRFTISRDNAKNTVYLQMNSLKPEDTAVYYCAAESRYPFIYEYWGQGTQVTVSS,low polyreactivity
15,QVQLVESGGGLVQAGGSLRLSCAASGRTFRYYAMGWYRQAPGKERELVATISSGGSTNYADSVKGRFTISRDNAKNTVYLQMNSLKPEDTAVYYCARYSYRGTNVRYDYWGQGTQVTVSS,high polyreactivity
16,QVQLVESGGGLVQAGGSLRLSCAASGRTFRYYDMGRYRQAPGKERELVAAISSSGDRTYYADSVKGRFTISRDNAKNTVYLQMNSLKPEDTAVYYCAADRGARGDYWGQGTQVTVSS,high polyreactivity
17,QVQLVESGGGLVQAGGSLRLSCAASGRTFRYYDMGWYRQAPGKEREFVAAITWRGGSTYYADSVKGRFTISRDYAKNTVYLQMNSLTPEDTAVYYCATDSLRLYGGKRDLYYWGQGTQVTVSS,low polyreactivity
18,QVQLVESGGGLVQAGGSLRLSCAASGRTFRYYTMGWYRQAPGKEREFVAAISSTGGTYYADSVKGRFTISRDNAKNTVYFQMNSLKPEDTAVYYCAAYRWGILSAYYYAWYGYWGQGTQVTVSS,low polyreactivity
19,QVQLVESGGGLVQAGGSLRLSCAASGRTFSAYAMGWNRQAPGKEREMVAAISSTGRTKYADSVKGRFTISRDNAKNSVYLQMNSLKPEDTAVYYCAARGYYVSPYTYGYWGQGTQVTVSS,high polyreactivity
20,QVQLVESGGGLVQAGGSLRLSCAASGRTFSAYAMGWYRQAPGKERELVAAISRSGGSTYYADSVKGRFTISRDNAKNTVYLQMNSLKPEDTAVYYCAAKGGSGLYYWGQGTQVTVSS,high polyreactivity
21,QVQLVESGGGLVQAGGSLRLSCAASGRTFSAYAMGWYRQAPGKERELVARITSVDSTNYADSVKRRFTISRDNAKNSVYLQINSLKPEDTAVYYCNATFGYPFVDYDDYWGQGTQVTVSS,low polyreactivity
22,QVQLVESGGGLVQAGGSLRLSCAASGRTFSDYAMGWYRQAPGKERELVAAITSSSGTTYYADSVKGRFTISRDNAKNTVYFQMNSLKPEDTAVYYCAAGHPYSLSERYNYWGQGTQVTVSS,low polyreactivity

row,Sequence,polyreactivity (PSR sort gate)
1,QVQLVESGGGLVQAGGSLRLSCAASGRTFSFYAMGWYRQAPGNERELVASMSRSGASTYYADSVKGRFTISRDNAKNTVYLQMNSLKPEDTAVYYCAAEWGRRYIYYYWGQGTQVTVSS,high polyreactivity
2,QVQLVESGGGLVQAGGSLRLSCAASGRTFSGNTMGWYRQAPGKEREFVATISQSGTITSYADSVKGRFTISRDNAKNTVYLQMNSLKPEDTAVYYCAARAVYYSSRGWITRFDYWGQGTQVTVSS,high polyreactivity
3,QVQLVESGGGLVQAGGSLRLSCAASGRTFSGNTMVWYRQAPGKERELVAAITGRGGSTYYADSVKGRFTISRDNAKNTVYLQMNSKKPEDTAVYYCAALRYTFAGRFDYWGQGTQVTVSS,high polyreactivity
4,QVQLVESGGGLVQAGGSLRLSCAASGRTFSGYAMGWYRQAPGKERELVAAIRLSGGSTYYADSVKGRFTISRDNAKNTVYLQMNSLKPEVTAVYYCARYHGFGYDYWGQGTQGTVSS,low polyreactivity
5,QVQLVESGGGLVQAGGSLRLSCAASGRTFSGYAMGWYRQAPGKERELVAAITGRGGSTYYADSVKGRFTISRDNAKNTVYLQMNSLKPEDTAVYYCAAYGIWYRVDYWGQGTQVTVSS,high polyreactivity
6,QVQLVESGGGLVQAGGSLRLSCAASGRTFSGYAMGWYRQAPGKERELVAGITWNGGRTYYADSVKGRFTISRDNAKNTVYLQMNILKPDDTAVYYCYKLGAVYPKYGYWGQGTQVTVSS,high polyreactivity
7,QVQLVESGGGLVQAGGSLRLSCAASGRTFSGYAMGWYRQAPGTERELVAAIDRGDGTNYADSVKGRFTISRDNAKNTVYLQMNSLKPEDTAVYYCAADYSYGSTSHTYTGFDYWGQGTQVTVSS,low polyreactivity
8,QVQLVESGGGLVQAGGSLRLSCAASGRTFSGYPMGWYRPAPGKERELVAAISWSGGSTYYADSVKGRFTISRDNAKNTVYLQMNSLKPEDTAVYYCAAYTYSFRANHDYWGQGTQVTVSS,high polyreactivity
9,QVQLVESGGGLVQAGGSLRLSCAASGRTFSHYAMGWYRQAPGKERELVAGISSGSRTNYADSVKGRFTISRDNAKNTVYLQMNSLKPEDTAVYYCAARTKYLKGGYWGQGTQVTVSS,high polyreactivity
10,QVQLVESGGGLVQAGGSLRLSCAASGRTFSIYAMGLYRQAPGKERELVAAISNGGRTKYADSVKGRFTISRDNAKNTVYLQMNSLKPEDTAVYYCAAETWYVAYGYWGQGTQVTVSS,high polyreactivity
11,QVQLVESGGGLVQAGGSLRLSCAASGRTFSKYAMGWDRPAPGKERELVAGISRSGGSTYYADSVKGRFTISRDNAKNTVYLQMNSLKPEDTAVYYCAKRSVGGTGYYWGQGTQVTVSS,high polyreactivity
12,QVQLVESGGGLVQAGGSLRLSCAASGRTFSKYAMGWYRQAPGKERELVAAIRWSGGSTYYADSVKGRFTISRDNAKNTVYLQMNSLKPEDTAVYYSAKRSRGLKFDYWGLGTQVTVSS,high polyreactivity
13,QVQLVESGGGLVQAGGSLRLSCAASGRTFSNYAMGWYRQAPGKERELVAAISQRGGSTYYADSVKGRFTISRDNAKNTVYLLMNSLKPEDTAVYYCNARQTTATGGTGNYWGQGTQVTVSS,high polyreactivity
14,QVQLVESGGGLVQAGGSLRLSCAASGRTFSNYAMGWYRQAPGKERELVAAISQRGGSTYYADSVKGRFTISRDNAKNTVYLQMNSLKPEDTAVYYCNARQTTATVGTGNYWGQGTQVTVSS,high polyreactivity
15,QVQLVESGGGLVQAGGSLRLSCAASGRTFSPYMGWSRQAPGKERELVAAISKSGGRTYYADSVKWSFTISRDNAKNTVYLQMNSLQPEDTAVYYCATSGNNYYYALYGYWVQGTQVTVSS,low polyreactivity
16,QVQLVESGGGLVQAGGSLRLSCAASGRTFSPYPMGWYRQAPGKERELGAAINWTGGSTYYADSVKGRFTISRDNAKNTVYLQMNSLKPEVTAVYYCNADWWYGYDYWGQGTQVTVSS,low polyreactivity
17,QVQLVESGGGLVQAGGSLRLSCAASGRTFSRYAMGWYRQAPGKERELVAAISWSGGTTHYADSVKGRFTISRDNAKNTVYLQMNSLKPEDTAVYYCNKLRQIEFWGQGTQVTVSS,high polyreactivity
18,QVQLVESGGGLVQAGGSLRLSCAASGRTFSTYAMGWYRQAPGKERELVAAIDSGGGSTYYADSVKGRFTISRDNAKNTVYLQMNSLKPEDTAVYYCARDHYAPLARLRYDYWGQGTQVTVSS,low polyreactivity
19,QVQLVESGGGLVQAGGSLRLSCAASGRTFSTYAMGWYRQAPGKERELVAAITRRGGSTYYADSVKGRFTISRDNAKNTVYLQMNSLKPEDTAVYYCARENPGDSYYDYWGQGTQVTVSS,low polyreactivity
20,QVQLVESGGGLVQAGGSLRLSCAASGRTFSTYVMGWYRQAPGKEREFVAAISTGGGSTYYADSVKGRFTISRDNAKNTVYLQMNSLKPEDTAVYYCAARLKWGWPTYDYWGQGTQVTVSS,high polyreactivity
21,QVQLVESGGGLVQAGGSLRLSCAASGRTFSVNAMGWYREAPGKEREFVAGISYSGNTYYADSVKGRVTISRDNAKKTAYLQMNSLKPEDTAVYYCAARRGYNDGYWGQGTQVTVSS,high polyreactivity
